The supplement of paper PMC7125110
± gives the standard error. For part of these data: This sample holds only a part of the variants without activity.

B1: glmS ribozyme (parent)
chain: AUAAAAGCGCCAGAACUACAGAAAUGUAGUUGACGAGGAGGAGGUUUAUCGAAUUUUCGGCGGAUGCCUCCAAA

Tests used:
Conditions in all cases: with glucosamine-6-phosphate
[1] = variants of: B1; test: kcat; higher = faster cleavage; RNA array
Outline: (§1)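 Barcoded glmS ribozyme variants on sequenced MiSeq chips were transcribed in situ by E. coli RNA polymerase and tracked through a hybridised Cy3 probe at 37 °C. Glucosamine-6-phosphate (40 μM to 10 mM) in HEPES/KCl/Mg(OAc)2 buffer was flowed in, and tiles were imaged over ~14 h. Signals were normalised to baseline and to non-cleaving reference variants; per-tile medians were fit to one- or two-exponential decays to give kobs. kcat and KM came from weighted Michaelis–Menten fits across concentrations.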

[2] = variants of: B1; test: KM; higher = weaker cofactor use; RNA array
Outline: as §1

[3] = variants of: B1; test: self-cleavage kobs at 40 uM GlcN6P; higher = faster cleavage; RNA array
Outline: as §1

[4] = variants of: B1; test: self-cleavage kobs at 2500 uM GlcN6P; higher = faster cleavage; RNA array
Outline: as §1

[5] = variants of: B1; test: self-cleavage kobs at 10000 uM GlcN6P; higher = faster cleavage; RNA array
Outline: as §1

[6] = variants of: B1; test: self-cleavage kobs at 160 uM GlcN6P; higher = faster cleavage; RNA array
Outline: as §1

[7] = variants of: B1; test: self-cleavage kobs at 640 uM GlcN6P; higher = faster cleavage; RNA array
Outline: as §1

Row | Variant | kcat [1] | KM [2] | self-cleavage kobs at 40 uM GlcN6P [3] | self-cleavage kobs at 2500 uM GlcN6P [4] | self-cleavage kobs at 10000 uM GlcN6P [5] | self-cleavage kobs at 160 uM GlcN6P [6] | self-cleavage kobs at 640 uM GlcN6P [7]
1 | C10G G59U | 3.49e-05 ± 2.3e-06 s⁻¹ | 1050 ± 290 µM | < 1e-05 s⁻¹ | 2.34e-05 ± 6.6e-06 s⁻¹ | 3.25e-05 ± 8.1e-06 s⁻¹ | – | –
2 | G7A A39G | 0.000288 ± 6.2e-05 s⁻¹ | – | – | – | 2.51e-05 ± 7.3e-06 s⁻¹ | < 1e-05 s⁻¹ | –
3 | U30G U46C | 0.000516 ± 3.6e-05 s⁻¹ | 1240 ± 170 µM | – | 0.000377 ± 7.4e-05 s⁻¹ | 0.000443 ± 8.5e-05 s⁻¹ | 6.38e-05 ± 2.1e-05 s⁻¹ | 0.000167 ± 3.1e-05 s⁻¹
4 | U30G U46G | 0.00267 ± 0.0006 s⁻¹ | 3990 ± 1200 µM | 4.16e-05 ± 1.4e-05 s⁻¹ | 0.00112 ± 0.00015 s⁻¹ | 0.00181 ± 0.00038 s⁻¹ | 0.000105 ± 2.3e-05 s⁻¹ | 0.000333 ± 4.9e-05 s⁻¹
5 | G32U C50G C71G | 0.000195 ± 2.4e-05 s⁻¹ | – | 0.000189 ± 5.1e-05 s⁻¹ | 0.000194 ± 6.4e-05 s⁻¹ | 0.000231 ± 5.8e-05 s⁻¹ | – | 0.000151 ± 6.3e-05 s⁻¹
6 | U31C G37U | < 1e-05 s⁻¹ | – | < 1e-05 s⁻¹ | – | – | – | < 1e-05 s⁻¹
7 | A53U C68G | 7.87e-05 ± 9.6e-06 s⁻¹ | – | – | 7.65e-05 ± 1.4e-05 s⁻¹ | 7.67e-05 ± 7.9e-06 s⁻¹ | 8.2e-05 ± 1.4e-05 s⁻¹ | 6.63e-05 ± 1.1e-05 s⁻¹
8 | U55C C58A | 0.000437 ± 0.00015 s⁻¹ | – | – | 0.000175 ± 2.3e-05 s⁻¹ | 0.000455 ± 6.7e-05 s⁻¹ | 4.03e-05 ± 1.3e-05 s⁻¹ | 9.55e-05 ± 1.2e-05 s⁻¹
